In the DeepSol protein solubility set:

experiment: soluble on expression in E. coli; label from the status in PepcDB or PDB records

Row | Sequence | soluble on expression in E. coli
1 | MGHHHHHHSHMSVPRGPIAQWADGAISPNGHRPQLRAASGEDSTEEALAAAAAPWEGGPVPGVDTSPFAKSLGHSRGEADLFDSGDIFSTGTGSQSVERTKPKAKIAENPANPPVGGKAKSPMFPALGEASSDDDLFQSAKPKPAKKTNPFPLLEDEDDLFTDQKVKKNETKSSSQQDVILTTQDIFEDDIFATEAIKPSQKTREKEKTLESNLFDDNIDIFADLTVKPKEKSKKKVEAKSIFDDDMDDIFSTGIQAKTTKPKSRSAQAAPEPRFEHKVSNIFDDPLNAFGGQ | not soluble
2 | MGHHHHHHSHMTITSGSSLPDGCEGRGLSVHTDMASVTKAMAAPESGLEVRDRMWLKITIPNAFLGSDVVDWLYHHVEGFPERREARKYASGLLKAGLIRHTVNKITFSEQCYYVFGDLSGGC | soluble
3 | MGHHHHHHSHMTKHPPNRRGISFEVGAQLEARDRLKNWYPAHIEDIDYEEGKVLIHFKRWNHRYDEWFCWDSPYLRPLEKIQLRKEGLHEEDGSSEFQINEQVLACWSDCRFYPAKVTAVNKDGTYTVKFYDGVVQTVKHIHVKAFSKDQNIVGNARPKETDHKSLSSSPDKREKFKEQRKATVNVKKDKEDKPLKTEKRPKQPDKEGKLICSEKGKVSEKSLPKNEKEDKENISENDREYSGDAQKTRQTPFHSSYCCGFKLSNFATNNIGTEKKENIKRM | not soluble
4 | MGHHHHHHSHMTLEEVRGQDTVPESTARMQGAGKALHELLLSAQRQGCLTAGVYESAKVLNVDPDNVTFCVLAAGEEDEGDIALQIHFTLIQAFCCENDIDIVRVGDVQRLAAIVGAGEEAGAPGDLHCILISNPNEDAWKDPALEKLSLFCEESRSVNDWVPSITLPE | soluble
5 | MGHHHHHHSHMTLIYVDADNTRNELKATTGSNFTITHRKDPLTTKWKTVFGNNGDQWLCNVTGIGNATVNSNATICVSSCGHNTLDLCNLKSGDSGFFDLSRWFGENMDEYSGDVWHLEVS | soluble
6 | MGHHHHHHSHMVGWQEGANHKNGAGRSQKQEMAEKMVPEVASGEEIGGRSEAGRESPDLFRPNTVEARDRPAGPPFSKSASVRVLQRSRTNRDYIPIEHIQSPIGIYNML | not soluble
7 | MGHHHHHHSHMVTHSKFPAAGMSRPLDTSLRLKTFSSKSEYQLVVNAVRKLQESGFYWSAVTGGEANLLLSAEPAGTFLIRDSSDQRHFFALSVKTQSGTKNLRIQCEGGSFSLQSDPRSTQPVPRFDCVLKLVYHYMPPPGAPSFPSPPTEPSSEVPEQPSAQPLPGSPPRRAYYIYSGGEKIPLVLSRPLSSNVATLQHLCRKTVNGHLDSYEKVTQLPGPIREFLDQYDAPL | not soluble
8 | MGHHHHHHSHMVTQFKEKNESLQYETSSPTVQLKIPQLRVSSVSKSQPDGSGLLDVMYQVSKTSSVLEGSALQKLKNILPKQNKIECSGPVTHSSVDSYFLHGDLSPLCLNSKNGTVDGTSENTEDGLDRKDSKQPRKKRGRYRQYDHEIMEEAIAMVMSGKMSVSKAQGIYGVPHSTLEYKVKERSGTLKTPPKKKLRLPDTGLYNMTDSGTGSCKNSSKPV | soluble
9 | MGHHHHHHSHMVVVAAAPNPADGTPKVLLLSGQPASAAGAPAGQALPLMVPAQRGASPEAASGGLPQARKRQRLTHLSPEEKALRRKLKNRVAAQTARDRKKARMSELEQQVVDLEEENQKLLLENQLLREKTHGLVVENQELRQRLGMDALVAEEEAEAKGNEVRPVAGSAESAALRLRAPLQQVQAQLSPLQNISPWILAVLTLQIQSLISCWAFWTTWTQSCSSNALPQSLPAWRSSQRSTQKDPVPYQPPFLCQWGRHQPSWKPLMN | not soluble
10 | MGHHHHHHSHPLKMETSGMTTPSLKTDGGRRTATSPPPTTSQTIISTIPSTAMHTRSTAAPIPILPERGVSLFPYGADAGDLEFVRRTVDFTSPLFKPATGFPLGSSLRDSLYASQAGTLWPWWLRSGTMLTSPLVGGPHFIRNTRRSMVNTAC | not soluble
11 | MGHHHHHHSHPPCRPCRYKKYVFLDPLAGAVTKTHVMLGAETEEKLFDAPLSISKREQLEQQVGGAGQRWRQVQWPRALPELLSSQGCWALYSTHGRCTQGLVGCPCRSLSPLTCPCLILQVPENYFYVPDLGQVPEIDVPSYLPDLPGIANDLMYIADLGPGIAPSAPGTIPELPTFHTEVAEPLKTYKMGY | not soluble
12 | MGHHHHHHSHSMKEENLCQAFSDALLCKIEDIDNEDWENPQLCSDYVKDIYQYLRQLEVLQSINPHFLDGRDINGRMRAILVDWLVQVHSKFRLLQETLYMCVGIMDRFLQVQPVSRKKLQLVGITALLLASKYEEMFSPNIEDFVYITDNAYTSSQIREMETLILKELKFELGRPLPLHFLRRASKAGEVDVEQHTLAKYLMELTLIDYDMVHYHPSKVAAAASCLSQKVLGQGKWNLKQQYYTGYTENEVLEVMQHMAKNVVKVNENLTKFIAIKNKYASSKLLKISMIPQLNSKAVKDLASPLIGRS | not soluble
13 | MGHHKAMPYADVAAFIIELRKREAVAATALEFTILTAARSGETLGAKWHEIDWKDKIWTVPAERMKAAREHRVPLSSRTITILKKLAEFGSDENSFVFPGQKPGKPLSVMAMDMVLRRMEVDVTVHGFRSSFRDWCGEVSNFPRDVAEAALAHVVGDKTERAYRRGDALEKRRKLMAAWEKFCIAEIKKNPLEHHHHHH | not soluble
14 | MGHTMPAHTPPAQTAPAAQKAGAQALPVTVQGATVAAVPPSIRDTAAYMTLTNKSDQPIKLVGAATPLATSPMLMTTTHSGGMAGMKMVPWLTIPARGTLTLQRDGDHVMLMGLKRPLKVGETVNITLKATDGRTLNVAATVKKNIEGR | soluble
15 | MGIRELNLTKEQHEWLNGWLELWAHGLSGRLEKRMSSVIAKFMESIEPGRVMTRPMCNDDDGMLISQVVDSVMYIDKKAFGILLSYYAHGSSKHAIASYYHRVARPRKMLCRGGGRIQKPSLATCRREVDEILNASLFMIYPVLDSAFKNRKRVEKIKHVALEHHHHHH | soluble
16 | MGIYQWRDKKKPSGGKRRYYYKVKRKYAAGRPPTYTTLSAAEEEERKPVRARGGSYKIKAKKVAFAVVSNPKTGEARKARILRIVETPAHREYARRGIIVKGAVIDTTLGRAVVTSRPGQEGVVNAVLLEEQGQKQLEHHHHHH | soluble
17 | MGKAKVPASKRAPSSPVAKPGPVKTLTRKKNKKKKRFWKSKAREVSKKPASGPGAVVRPPKAPEDFSQNWKALQEWLLKQKSQAPEKPLVISQMGSKKKPKIIQQNKKETSPQVKGEEMPAGKDQEASRGSVPSGSKMDRRAPVPRTKASGTEHNKKGTKERTNGDIVPERGDIEHKKRKAKEAAPAPPTEEDIWFDDVDPADIEAAIGPEAAKIARKQLGQSEGSVSLSLVKEQAFGGLTRALALDCEMVGVGPKGEESMAARVSIVNQYGKCVYDKYVKPTEPVTDYRTAVSGIRPENLKQGEELEVVQKEVAEMLKGRILVGHALHNDLKVLFLDHPKKKIRDTQKYKPFKSQVKSGRPSLRLLSEKILGLQVQQAEHCSIQDAQAAMRLYVMVKKEWESMARDRRPLLTAPDHCSDDA | soluble
18 | MGKGGNYVTVAASEVDELRRKNGEMEKAVEEMKKEMLQLWRRTQVAEEAEERLCSQLAELEAESLDQARDYHSRIIFLMNELSRLSSDSASASP | soluble
19 | MGKGKNKMHEPKNGRPQRGANGHSSRQNHRRMEMKYDNSEKMKFPVKLAMWDFDHCDPKRCSGKKLERLGLIKSLRVGQKFQGIVVSPNGKGVVCPDDLEIVEQHGASVVECSWARLEEVPFNKIGGKHERLLPYLVAANQVNYGRPWRLNCVEALAACFAIVGRMDWASELLSHFSWGMGFLELNKELLEIYQQCTDCDSVKRAEEEWLQKLEKETQERKSRAKEEDIWMMGNINRRGNGSQSDTSESEENSEQSDLEGNNQCIEYDSLGNAIRIDNMKSREAQSEESEDEESGSKENGEPLSYDPLGNLIR | not soluble
20 | MGKKAHGGKMKPEIDENGTLLVPPPRTIANQDHFHRLNYLYQISAYQTRARQKARTDAHTPLARNYIKSMDLISKKTKTSLLPTIKRTICKKCHRLLWTPKKLEITSDGALSVMCGCGTVKRFNIGADPNYRTYSEREGNLLNS | soluble
21 | MGKKKNSNKSAAAAPAVKHNDRWSSIELGEAKSAAVSHYKEPSKEPKFVHPAKLEKVKRIHDGLNIDRVLSHGPVPKQNGGTKRKHVEVTTQKLENKKPKVEVKKEDEKSKNKKMKNQNKHTALVQNETSTRSTYFVEEPDNENKVTLISNGREIAFKKTEVVESDDEQMIGLDSDEELEDEDETDIDEDEMMIDPKDIERYINFESVEDEEDMEDEEIEDEEFEDEEFEDEEEEADEQEEEEEDVSDEESVVSEMDADSDDEGFIAGKDREAHVISKDKFTRNAPAVDFDKFPFTDEDSVVTSSRAFGFMISPCDVQTFFDKFYQSNVLVVRRKQPTYFGNLFSTARLGELLEKNHLEYGRNINIAQYKNGVRTTLNGQGRAYPQIVKQHLHNMCSVQLVNPQTYDDRIWYLCEVIQEQFGCFVGANTYLTPAGSSGFAPHWDEIDAFLLQVEGRKYWRVWAPESAEEELPLESSDNFTEDDMKGREPVFEGWIEKGDMIYIPRGYIHQARTDSKVHSLHVTVSTGRQWSFANLMEKVVPEAIGVLTDTRHKLRRGLPTGLFDMGGVIDLDYSQEDHFVEKFKMVVDRHMSMLRNLVADQLLESSVDSLAKEFMKQALPPRLTEQEKKLSVLGSSTNLLGDDLVDFTARTKVRLIRRHTQRLLMESEDACFISHRINNSRLFEGRPEQIVEYPISGIDAYRVLSNSYPEWRTLYEIFSLRETKTKSRKENLAAIQLLFQIGVLLVKN | not soluble
22 | MGKNLLREKKRLIRQKILFLTGENESWMKNPEIVKEVQRLSKQLESDLIADKRPLPSLDPDKLTKEKYQHFLDLGYQVGDIKKALGLGTTTFQNWRKANGIENKINRKQKKEESKLMKFNIHTASLLLPGTFGAEGKECITISKSGLALSGPVVRRLNKPEWIQLYLDESRLALFVIPCKATDEGARSCVNPKSKKKAGYRKSWSGSILEKVAKASKMDIENHRYHVEPESVEGYPTALGFDLTKAVKN | not soluble
23 | MGKTKPVLQCTLCGALVDSGNGLPMHEETYAVLRVEAMPRQWRQALENVMAKTIASPPPSAMPGTDPLEAVWFTPWRTNSWQPNTVDCRQVLNGTLDELRVLSQEVAALAATQGFSACVEFV | not soluble
24 | MGKTLFEKVWNAHVVTEVKDGPSILYIDKQLIHEVTSPQAFAGIEKRGIGVFRPERTLATPDHNVPTKGQNLPIVEDLSRFQVDKLTENCNKFGVTLYGLGHASQGVVHVVGPETGTTLPGMTIVCGDS | not soluble
25 | MGKVILVTGVSRGIGKSIVDVLFSLDKDTVVYGVARSEAPLKKLKEKYGDRFFYVVGDITEDSVLKQLVNAAVKGHGKIDSLVANAGVLEPVQNVNEIDVNAWKKLYDINFFSIVSLVGIALPELKKTNGNVVFVSSDACNMYFSSWGAYGSSKAALNHFAMTLANEERQVKAIAVAPGIVDTDMQVNIRENVGPSSMSAEQLKMFRGLKENNQLLDSSVPATVYAKLALHGIPDGVNGQYLSYNDPALADFMP | soluble
26 | MGLHRLIYLSCATDGLSYPDLRDIMAKSEVNNLRDGITGMLCYGNGMFLQTLEGDRQKVSETYARILKDPRHHSAEIVEFKAIEERTFINWSMRLVQLGEMDSDTIRRLRLKYSPAATFQPRSMTAEQCFRFLKELYDMSQGS | soluble
